The values that follow come from patent US8344120B2, “Nucleic acid molecules encoding rage fusion proteins” (TransTech Pharma, Inc., priority 2006, dated 2013).

Where “and” joins values, the source holds several entries; their conditions need not be identical. Identical values can stand only once.

Test [1] deals with S100b/RAGE-induced production of TNF-α in THP-1 cells. As to the kind of experiment: S100b/RAGE-induced production of TNF-α in THP-1 cells. It is filed as cell-based. The note with it: 10 μg protein, 24 hours. The text has this: Use of the RAGE fusion proteins of the present invention to modulate expression of the cellular effector TNF-α is shown in FIG. 10. THP-1 myeloid cells may be cultured in RPMI-1640 media supplemented with 10% FBS and induced to secrete TNF-α via stimulation of RAGE with S100b. When such stimulation occurs in the presence of a RAGE fusion protein, induction of TNF-α by S100b binding to RAGE may be inhibited.
Previous work has shown that the myeloid THP-1 cells may secrete TNF-α in response to RAGE ligands. In this assay, THP-1 cells were cultured in RPMI-1640 media supplemented with 10% FBS using a protocol provided by ATCC. […] The amount of TNF-α secreted by the THP-1 cells was measured 24 hours after the addition of the proteins to the cell culture using a commercially available ELISA kit for TNF-α (R&D Systems, Minneapolis, Minn.).

Test [2] concerns recurrent diabetes in syngeneic NOD transplant model. As to the kind of experiment: Syngeneic islet transplantation in NOD mice. It is filed as in vivo. An excerpt:
Spontaneous autoimmune non-obese diabetic mice (NOD/LtJ) (12-25 weeks old) served as recipients for islet cells, while young pre-diabetic NOD/LtJ mice (6-7 weeks old) served as donors in syngeneic islet transplantation. Islets for transplantation were isolated as described above in Section A (Allogeneic Islet Transplantation). Diabetic NOD/LtJ mice received islet grafts within 2 days of the diagnosis of diabetes. 500-600 freshly isolated islets (approximately 550 islet equivalents) from donor mice were picked up with an infusion set and transplanted into the subcapular space of the right kidney. Test compounds were administered as soon as the islets were transplanted and continued for approximately 8 weeks. […] Islet graft function was monitored by serial blood glucose measurements daily for the first 2 weeks after islet transplantation, followed by every other day thereafter. Reversal of diabetes was defined as blood glucose less than 200 mg/dl on two consecutive measurements. Percentage graft loss was determined when blood glucose exceeded 250 mg/dl on two consecutive measurements.

In test [3] the target is T1, amphoterin (Ampho) (Homo sapiens, UniProt P09429).
T1 sequence (P09429 1-215): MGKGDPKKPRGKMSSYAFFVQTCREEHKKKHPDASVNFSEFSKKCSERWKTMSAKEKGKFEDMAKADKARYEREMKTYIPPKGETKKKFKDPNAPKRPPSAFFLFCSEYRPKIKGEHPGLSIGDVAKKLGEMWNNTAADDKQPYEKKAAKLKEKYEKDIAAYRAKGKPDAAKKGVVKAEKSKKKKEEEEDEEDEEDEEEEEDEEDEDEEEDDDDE
As to the kind of experiment: In vitro ligand binding ELISA, immobilized amphoterin. The note with it: ligand 5 micrograms per well; fusion protein at increasing dilutions, 37° C. one hour. Here is the method: For example, the RAGE fusion protein may be used in a binding assay to identify potential RAGE ligands. In one example embodiment of such a binding assay, a known RAGE ligand may coated onto a solid substrate (e.g., Maxisorb plates) at a concentration of about 5 micrograms per well, where each well contains a total volume of about 100 microliters (4). The plates may be incubated at 4° C. overnight to allow the ligand to absorb or bind to the substrate. Alternatively, shorter incubation periods at higher temperature (e.g., room temperature) may be used. […] The RAGE fusion protein bound to the immobilized ligand may be detected in a variety of ways. […] The bound complex may be detected by adding the alkaline phosphatase substrate, para-nitrophenylphosphate (PNPP), and measuring conversion of PNPP to para-nitrophenol (PNP) as an increase in absorbance at 405 nm. […] In the absence of ligand (i.e., coating with only BSA) there was no increase in absorbance. […] Binding was detected by the addition of an immunodetection complex containing a monoclonal mouse anti-human IgG1 diluted 1:11,000 to a final assay concentration (FAC) of 21 ng/100 μL, a biotinylated goat anti-mouse IgG diluted 1:500, to a FAC of […], and an avidin-linked alkaline phosphatase. […]

[4] abbreviates: 300 ug LD + 100 ug qod ip, syngeneic islets in NOD mice.

B1: TTP-4000: four domain RAGE fusion protein: human RAGE N-terminal sequence (to position 251) linked to human IgG Fc (γ1) without hinge; SEQ ID NO: 34/56 (protein)
chain: QNITARIGEPLVLKCKGAPKKPPQRLEWKLNTGRTEAWKVLSPQGGGPWDSVARVLPNGSLFLPAVGIQDEGIFRCQAMNRNGKETKSNYRVRVYQIPGKPEIVDSASELTAGVPNKVGTCVSEGSYPAGTLSWHLDGKPLVPNEKGVSVKEQTRRHPETGLFTLQSELMVTPARGGDPRPTFSCSFSPGLPRHRALRTAPIQPRVWEPVPLEEVQLVVEPEGGAVAPPSVFLFPPKPKDTLMISRTPEVTCVVVDVSHEDPEVKFNWYVDGVEVHNAKTKPREEQYNSTYRVVSVLTVLHQDWLNGKEYKCKVSNKALPAPIEKTISKAKGQPREPQVYTLPPSRDELTKNQVSLTCLVKGFYPSDIAVEWESNGQPENNYKTTPPVLDSDGSFFLYSKLTVDKSRWQQGNVFSCSVMHEALHNHYTQKSLSLSPGK
For B1, the “reduction of S100b induction of TNF-α” value in test [1] (S100b 0.1 mg/ml FAC) is recorded as ~70%. In addition, in test [1] (S100b 0.1 mg/ml), the “S100b induction of TNF-α, comparison in words” value was “at least as effective in blocking S100b induction of TNF-α as is sRAGE”. Moreover, in test [2] (setting [4]), the “day of graft loss for each animal” value was 40 day and 43 day and 36 day and 45 day and 44 day and 38 day (2×) and 35 day; the “day of graft loss, Mean” value amounted to 39.875 days. Moreover, in test [2] (versus animals not treated at all), the “time before detection of graft failure, in words” value was “increase in the time before detection of graft failure”. Moreover, in test [3], the “binding to immobilized amphoterin (increase in absorbance at 405 nm)” value is on record as “specifically interact”.
